Data: patent publication US20220265819A1 (GEN2 NEUROSCIENCE, published 2022)
Numbering of substitutions follows the chain as printed. One block for each binder: values may come before it.

Legend:
[1] = molecular target: T1, full length recombinant human 2N4R tau (amino acids 1-441) (human, UniProt P10636 1-758); experiment: SPR Biacore MCK, purified IgG on Protein A, tau analyte
T1 construct: Bought (rPeptide); recombinant, non-phosphorylated; also called recombinant tau
Description: Biacore multi-cycle kinetics (MCK) analyses for antibody binding to recombinant (non-phosphorylated) 2N4R tau are summarised in FIG. 23 and Table 8. […] Slight variations in RMAX are considered likely to be due to differences in ligand capture and not reflective of significant variation in antibody binding characteristics.
24.2 Assessment of antibody binding to tau (Biacore MCK analysis): Binding of anti-tau hIgG1 to full length recombinant 2N4R tau (Rpeptide; SEQ ID NO: 2) was assessed using the Biacore T200 (GE Healthcare, Chicago, Ill., USA) running Biacore T200 Evaluation Software V2.0.1. hIgG1 were immobilised on a Protein A capture sensor chip in running buffer (HBS-EP+ buffer containing 1 mg/mL BSA) at 25° C. captured to ˜50 RU at 10 μL/min. […] Curves were compared to a reference cell that was mock immobilized (no antibody present).

[2] = molecular target: T1, full length recombinant human 2N4R tau …; experiment: SPR Biacore SCK, IgG on Protein A, tau analyte
Description: 23.5 Assessment of antibody binding to tau (Biacore SCK analysis): Binding of anti-tau hIgG1 to full length recombinant 2N4R tau (Rpeptide; SEQ ID NO: 2) was assessed using the Biacore T200 (GE Healthcare, Chicago, Ill., USA) running Biacore T200 Evaluation Software V2.0.1. hIgG1 were immobilised on a Protein A capture sensor chip in running buffer (HBS-EP+ buffer containing 1 mg/mL BSA) at 25° C. captured to ˜50 RU at 10 μL/min. For single-cycle kinetics experiments, recombinant 2N4R tau was flowed at concentrations ranging from 5 nM to 40 nM (2-fold dilutions) with an association time of 150 s and a dissociation time of 200 s. Curves were compared to a reference cell that was mock immobilized (no antibody present).
Data were analysed using Langmuir (1:1) binding analysis, describing a 1:1 interaction at the surface: […]

[3] = molecular target: T2, Bovine serum albumin (bovine, UniProt P02769 25-607); experiment: ELISA on 1% BSA, HEK supernatant, anti-human IgG-HRP, n=1
T2 construct: Negative control antigen in ELISA; also called BSA
T2 sequence (P02769 25-607 limits assumed): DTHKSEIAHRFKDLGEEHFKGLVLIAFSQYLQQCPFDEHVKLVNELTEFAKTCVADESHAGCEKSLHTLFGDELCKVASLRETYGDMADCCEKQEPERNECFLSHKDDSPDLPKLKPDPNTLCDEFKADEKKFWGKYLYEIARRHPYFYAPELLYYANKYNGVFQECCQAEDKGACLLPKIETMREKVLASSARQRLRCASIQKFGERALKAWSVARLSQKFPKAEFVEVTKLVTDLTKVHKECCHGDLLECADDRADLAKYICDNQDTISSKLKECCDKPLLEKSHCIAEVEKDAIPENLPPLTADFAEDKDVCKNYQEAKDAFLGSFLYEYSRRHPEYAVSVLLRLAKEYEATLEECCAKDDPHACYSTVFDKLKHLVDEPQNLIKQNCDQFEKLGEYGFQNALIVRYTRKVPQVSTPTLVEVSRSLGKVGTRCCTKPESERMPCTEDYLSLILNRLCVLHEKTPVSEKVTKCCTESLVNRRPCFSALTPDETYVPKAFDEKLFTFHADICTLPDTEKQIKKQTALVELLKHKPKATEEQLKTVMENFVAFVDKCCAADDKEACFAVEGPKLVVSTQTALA
Description: Antigen was removed from wells and the plates were then blocked for 1 hour at RT with 5% dried milk in 1×TBS. Blocking solution was removed, HEK293 cell supernatant (1:100 in 1% BSA/1×TBS) was added to relevant wells, and plates were incubated for 1 hour at RT with gentle shaking. Plates were then washed four times with TBS/0.1% Tween (TBST). Goat-anti-human IgG-HRP antibody (ThermoFisher Scientific, Waltham, Mass. USA), diluted 1:2000 in 5% milk/TBS, was added to each well and plates were incubated for 1 hour at RT with gentle shaking before being washed four times with TBST. 3,3′,5,5′-tetramethylbenzidine (TMB) ELISA solution was added to each well and plates were incubated for 15 mins at RT. An equal volume of 1 M sulfuric acid was added to each well and OD was measured at 450 nm.

[4] = molecular target: full length pHrodo-labelled monomeric (P301S) 2N4R tau (human, UniProt P10636 1-758, labelled with pHrodo Red Maleimide); experiment: cell-based or functional assay
full length pHrodo-labelled monomeric (P301S) 2N4R tau, sequence (P10636 other isoform, or with tags, fused parts or gaps P301S P301S): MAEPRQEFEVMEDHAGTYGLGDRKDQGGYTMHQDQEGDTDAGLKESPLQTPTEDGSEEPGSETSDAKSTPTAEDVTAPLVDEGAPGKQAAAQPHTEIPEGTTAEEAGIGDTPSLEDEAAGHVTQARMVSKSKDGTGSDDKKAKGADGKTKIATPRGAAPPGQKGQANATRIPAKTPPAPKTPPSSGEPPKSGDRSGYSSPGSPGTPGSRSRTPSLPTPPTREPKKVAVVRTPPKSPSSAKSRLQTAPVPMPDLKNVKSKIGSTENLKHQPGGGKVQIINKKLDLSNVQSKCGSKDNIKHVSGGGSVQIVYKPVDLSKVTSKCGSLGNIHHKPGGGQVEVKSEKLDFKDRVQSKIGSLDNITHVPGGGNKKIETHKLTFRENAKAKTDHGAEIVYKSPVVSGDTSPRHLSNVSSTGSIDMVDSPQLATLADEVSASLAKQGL

[5] = molecular target: full length pHrodo-labelled aggregated (P301S) 2N4R tau (human, UniProt P10636 1-758, labelled with pHrodo Red Maleimide); experiment: cell-based or functional assay
full length pHrodo-labelled aggregated (P301S) 2N4R tau, sequence (P10636 other isoform, or with tags, fused parts or gaps P301S P301S): as above

T1 sequence (P10636 other isoform, or with tags, fused parts or gaps limits assumed): as the sequence (P10636 other isoform, or with tags, fused parts or gaps P301S P301S) above, with S301P counted along it

B1: Clone 31 (VH5Vκ2), humanised variant of clone #28, human IgG1 (antibody, V domains shown)
VH: QVQLQESGPGLVKPSETLSLTCTVSGFSLNNYDMSWVRQAPGKGLEWIGTVSTTYRRYYASWAKGRFTISRDNSKNTLDLQMTSLTAEDTATYFCAASGIWGRGTLVTVSS
VL: AQVLTQSPSTLSASVGDRVTITCQSSQRVYSNYLAWYQQKPGQPPKRLIFLASTLESGVPSRFSGSGSGTEFTLTISSLQPDDFATYYCAGTYTGSIWAFGGGTKVEIK
notes: also called VH5VK2; VH5Vk2
- Kd [1]: 34.8 nM
- Relative KD [1]: 1.4 fold vs VH0VK0
- koff [1]: 0.00321 s⁻¹
- kon [1]: 92400 M⁻¹ s⁻¹
- Kd [2]: 96.5 nM
- Relative KD [2]: 2.13 fold vs VH0VK0
- koff [2]: 0.00362 s⁻¹
- kon [2]: 37500 M⁻¹ s⁻¹
- binding result [3]: no binding (tested: supernatant 1:100)
- inhibition of uptake of monomeric tau into human iPSC-derived astrocytes [4]: 26.7 % inhibition
- inhibition of uptake of monomeric tau into human iPSC-derived neurons [4]: 57.3 % inhibition
- increase of uptake of aggregated tau into human iPSC-derived microglia [5]: 133 % increase
- inhibition of uptake of aggregated tau into human iPSC-derived astrocytes [5]: 27.8 % inhibition
- inhibition of uptake of aggregated tau into human iPSC-derived neurons [5]: 57.2 % inhibition

B3: Clone 27 (VH4Vκ2), humanised variant of clone #28, human IgG1 (antibody, V domains shown)
VH: B1 VH with R71K, N73T, K75S, N76T, L78V
VL: B1 VL
notes: also called VH4VK2; VH4Vk2
- Kd [1]: 44 nM
- Relative KD [1]: 1.77 fold vs VH0VK0
- koff [1]: 0.0026 s⁻¹
- kon [1]: 59100 M⁻¹ s⁻¹
- Kd [2]: 68.6 nM
- Relative KD [2]: 1.51 fold vs VH0VK0
- koff [2]: 0.00308 s⁻¹
- kon [2]: 44800 M⁻¹ s⁻¹
- binding result [3]: no binding (tested: supernatant 1:100)
- inhibition of uptake of monomeric tau into human iPSC-derived neurons [4]: 66.5 % inhibition
- increase of uptake of aggregated tau into human iPSC-derived microglia [5]: 179 % increase
- inhibition of uptake of aggregated tau into human iPSC-derived neurons [5]: 58.7 % inhibition

B4: Clone 21 (VH2Vκ5), humanised variant of clone #28, human IgG1 (antibody, V domains shown)
VH: QSLQESGPGLVKPSETLSLTCTVSGFSLNNYDMSWVRQAPGKGLEWIGTVSTTYRRYYASWAKGRFTISKTSSTTVDLQMTSLTAEDTATYFCAASGIWGRGTLVTVSS
VL: B1 VL with A1D, Q2I, V3Q, L4M, Y30S, N32S
notes: also called VH2VK5
- Kd [2]: 136 nM
- Relative KD [2]: 3 fold vs VH0VK0
- koff [2]: 0.00523 s⁻¹
- kon [2]: 38500 M⁻¹ s⁻¹
- binding result [3]: no binding (tested: supernatant 1:100)

More lines, in order of falling Kd [2], values ahead:

- Kd [1]: 33.6 nM
- Relative KD [1]: 1.35 fold vs VH0VK0
- koff [1]: 0.00239 s⁻¹
- kon [1]: 71100 M⁻¹ s⁻¹
- Kd [2]: 67.3 nM
- Relative KD [2]: 1.49 fold vs VH0VK0
- koff [2]: 0.00239 s⁻¹
- kon [2]: 35500 M⁻¹ s⁻¹
- binding result [3]: no binding (tested: supernatant 1:100)
- inhibition of uptake of monomeric tau into human iPSC-derived astrocytes [4]: 45.7 % inhibition
- inhibition of uptake of monomeric tau into human iPSC-derived neurons [4]: 64.2 % inhibition
- increase of uptake of aggregated tau into human iPSC-derived microglia [5]: 243 % increase
- inhibition of uptake of aggregated tau into human iPSC-derived astrocytes [5]: 45.7 % inhibition
- inhibition of uptake of aggregated tau into human iPSC-derived neurons [5]: 41.3 % inhibition
B2: Clone 32 (VH5Vκ4), humanised variant of clone #28, human IgG1 (antibody, V domains shown)
VH: B1 VH
VL: B1 VL with A1D, Q2I, V3Q, L4M
notes: also called VH5VK4; VH5Vk4

- Kd [1]: 26.9 nM
- Relative KD [1]: 1.08 fold vs VH0VK0
- koff [1]: 0.00186 s⁻¹
- kon [1]: 69200 M⁻¹ s⁻¹
- Kd [2]: 49 nM
- Relative KD [2]: 1.08 fold vs VH0VK0
- koff [2]: 0.00234 s⁻¹
- kon [2]: 47700 M⁻¹ s⁻¹
- binding result [3]: no binding (tested: supernatant 1:100)
- inhibition of uptake of monomeric tau into human iPSC-derived astrocytes [4]: 42 % inhibition
- inhibition of uptake of monomeric tau into human iPSC-derived neurons [4]: 61.5 % inhibition
- increase of uptake of aggregated tau into human iPSC-derived microglia [5]: 246 % increase
- inhibition of uptake of aggregated tau into human iPSC-derived astrocytes [5]: 29.1 % inhibition
- inhibition of uptake of aggregated tau into human iPSC-derived neurons [5]: 58.7 % inhibition
B5: Clone 28 (VH4Vκ4), humanised variant of clone #28, human IgG1 (antibody, V domains shown)
VH: B1 VH with R71K, N73T, K75S, N76T, L78V
VL: B1 VL with A1D, Q2I, V3Q, L4M
notes: also called VH4VK4; VH4Vk4

- Kd [1]: 24.9 nM
- Relative KD [1]: 1 fold vs VH0VK0
- koff [1]: 0.00249 s⁻¹
- kon [1]: 99900 M⁻¹ s⁻¹
- Kd [2]: 45.3 nM
- Relative KD [2]: 1 fold vs VH0VK0
- koff [2]: 0.00342 s⁻¹
- kon [2]: 75400 M⁻¹ s⁻¹
- binding result [3]: no binding (tested: supernatant 1:100)
B6: Clone #28 VH0VK0 chimeric human IgG1 (rabbit VH and VK of Clone 1) (antibody, V domains shown)
VH: B4 VH with Q4E, P8G, S14G, E15G, S18T, Q79K, A85T, R101P, S109L
VL: AQVLTQTTSPVSAAVGGTVTINCQSSQRVYSNYLAWYQQKPGQPPKRLIFLASTLESGVPSRFSGSGSGTQFTLTISDLECDDAATYYCAGTYTGSIWAFGGGTEVVVK
notes: also called VH0Vκ0; #28 VH0κ0
